Patent US20210284724A1 (I MAB BIOPHARMA US, published 2021)
Positions count from the first letter of the chain named.

T1: human CXCL13 (human, UniProt O43927 23-109)
T1 construct: also called huCXCL13; rhCXCL13
T1 sequence (looked up): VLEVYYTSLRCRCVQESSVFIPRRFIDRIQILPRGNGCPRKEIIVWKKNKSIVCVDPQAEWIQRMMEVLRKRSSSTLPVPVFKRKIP

T2: cynomolgus CXCL13 (cynomolgus, UniProt H6WS58 23-109)
T2 construct: also called cynoCXCL13; Cyno CXCL13
T2 sequence: T1 sequence (looked up) with S8H, L32S, I52V, M65I, V68M, R72K, L77P

T3: mouse CXCL13 (mouse, UniProt O55038 22-109)
T3 construct: also called rmCXCL13
T3 sequence (looked up): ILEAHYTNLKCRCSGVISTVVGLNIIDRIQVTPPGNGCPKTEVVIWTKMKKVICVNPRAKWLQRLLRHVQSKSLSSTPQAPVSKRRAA

B1: 339A9E7 (antibody, V domains shown)
VH: DVQLQESGPGLVKPSQSLSLTCTVTGYSITSDYAWNWNRQFPGNKLEWMGYISYSGDTSYNPSLRSRISITRDTSKNQFFLQLNSVTAEDTAKYYCVAGHFDYWGQGTTLTVSS
VL: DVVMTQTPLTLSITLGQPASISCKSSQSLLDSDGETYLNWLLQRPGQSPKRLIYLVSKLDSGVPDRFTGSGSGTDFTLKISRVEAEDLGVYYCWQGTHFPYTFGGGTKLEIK
notes: Hybridoma mAb
B2: 397C3B3 (antibody, V domains shown)
VH: B1 VH with N38I, D57S, R65K, T71N, A88T, K93T
VL: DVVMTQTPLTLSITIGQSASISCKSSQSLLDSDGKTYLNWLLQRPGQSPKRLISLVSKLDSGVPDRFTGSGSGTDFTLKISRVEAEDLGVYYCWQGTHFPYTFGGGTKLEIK
notes: Hybridoma mAb
B3: 348B10B1 (antibody, V domains shown)
VH: EVQLQQSGPELVKPGASVKISCKTSGYTFTEYIMHWVKQSHGRSLEWIGGINPDNGDTTYNQKFKGKATLTVDKSSTTAYMELRSLTSEDSAVYYCAGGVLDYWGQGTSVTVSS
VL: not shown
notes: Hybridoma mAb
B4: 360A3D4E3 (antibody, V domains shown)
VH: B3 VH with G42E, N52H, K65T
VL: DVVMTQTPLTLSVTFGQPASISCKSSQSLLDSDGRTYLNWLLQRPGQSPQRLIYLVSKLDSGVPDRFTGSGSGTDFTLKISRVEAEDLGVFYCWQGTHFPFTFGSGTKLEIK
notes: Hybridoma mAb
B5: 339H3E2 (antibody, V domains shown)
VH: B3 VH with D54N, D57G, T77S, L101M
VL: not shown
notes: Hybridoma mAb
B6: 21H12D9 (antibody, V domains shown)
VH: EVQLQQSGPVLVRPGASVKMSCKASGYTFTDYYMNWVKQSHGKSLEWIGVINPNNGGTTYKEKFKGKATLTVDKSSGTAYMELNSLTSEDSAVYYCARDDYDAGYWGQGTTLTVSS
VL: DIVMTQFQKFMSTTVGDRVSITCKASQNVDTAVAWYQHKPGQSPKLLIYSASHRYTGVPDRFTGSGSGTDFTLTISNVQSEDLADYFCQQYTDFPLTFGAGTKLELK
notes: Hybridoma mAb
B7: 537C8D7 (antibody, V domains shown)
VH: EVQLVESGGGLVLPGRSLKLSCAASGFTFSDYAMAWVRQAPKKGLEWVATVFYDGSDTFYRDSVKGRFTISRDNAKSTLYLQMDSLRSEDTATYYCAREGDYYSRHVYVGYNWFPHWGQGTLVTVSS
VL: DIRMTQSPASLSASLGETVNIECLTSEDINSELAWYQQKPGKFPQFLIYNANSLQDGVPSRFSGSGSGTQYSLKINSLQSEDVATYFCQQYNSYPLTFGSGTELEIK
notes: Hybridoma mAb
B8: 329F2E1 (antibody, V domains shown)
VH: EVKLLQSGGGLVQPGGSLKLSCAASGIDFSRYWMSWVRRAPGKGLEWIGEINPDSSTINYAPSLKDKFIISRDNAKNTLYLQMSKVRSEDTALYYCARQDDYDYYAMDYWGQGTSVTVSS
VL: DIVMTQSHKFMSTSVGDRVSITCKASQDVSTGVAWYQQKPGQSPKLLIYSASYRYTGVPDRFTGSGSRTDFTFTISSVQTEDPAVYYCHQYYTIPLTFGAGTELELK
notes: Hybridoma mAb
B9: 71F4A3 (antibody, V domains shown)
VH: B8 VH with D103E
VL: B8 VL with F10S, S30N, Q37R, R68G, T80A, P83L, H89Q, T93S, I94T, E103K
notes: Hybridoma mAb
B10: 1H3A11 (antibody, V domains shown)
VH: EVQLVESGGGLVKPGGSLKLSCAASGFTFSSYAMSWVRQTPEKRLEWVATISDGGSDTYYPDNVKGRFTISRDNAKNNLYLQMSHLKSEDTAMYYCARDYYGSSYEDYAMDYWGQGTSVTVSS
VL: DIQMTQSPSSLSASLGGKVTITCKASQDINKYITWYQHKPGKGPRLLIHYTSTLQPGIPSRFSGSGSGRDYSFSISNLEPEDIATYYCLQYDNLYTFGGGTKLEIK
notes: Hybridoma mAb
B11: 430D9B3 (antibody, V domains shown)
VH: QVTLKESGPEILQPSQTLSLTCTFSGFSLSPYGMGVGWIRQPSGKGLEWLANIWWDDDKYYNPSLINRLTISKDTSNNQAFLKITNVDTTDSATYYCVRSELVMPYVPFDYWGQGVMVTVSS
VL: DIQMTQSPSSMSASLGDRVTITCQASQDIENDLIWFQQKPGKSPRPLIYYATNLANGVPSRFSGRRSESNYSLTISSLESEDMADYHCLQFKQYPYTFGAGTKLELK
notes: Hybridoma mAb
B12: 418D3H6 (antibody, V domains shown)
VH: B11 VH with E10G, P31T, D74N, T89A, T90P, S92T, V98A, Y111F, V116I
VL: DIQMTQSPSSLSASLGDRITMTCQASQDIGIELIWFQQKPGKSPWPVIYYTANLASGVPSRFSGSRSGSHYSLTISSLESEDMADYHCLQYKQYPFTFGSGTKLEIK
notes: Hybridoma mAb
B13: 423A6H6 (antibody, V domains shown)
VH: B11 VH with E10G, P31T, I66Q, T90A, S92T, V98A, V103I, M117R
VL: B11 VL with E30D, D32H, L47M, R65S, E68G, N70D, Y96F, A100S, L106I
notes: Hybridoma mAb
B14: 442C9H4 (antibody, V domains shown)
VH: B11 VH with E10G, T23S, P31T, D74N, T89A, T90P, S92T, V98A, Y111F, V116I
VL: B12 VL with M21I, E32D
notes: Hybridoma mAb
B15: 445A6G7 (antibody, V domains shown)
VH: B11 VH
VL: B11 VL with E30G
notes: Hybridoma mAb
B16: 427C4F11 (antibody, V domains shown)
VH: QVTLKESGPGILQPSQTLSLTCTFSGFSLTTYGMGVGWIRQPSGKGLEWLANIWWDDDKYSNPSLQSRLTISKDTSNNQAFLTITNVDTADTATYYCARSELVMPYVPFDYWGQGVRVTVSS
VL: B11 VL with E30D, D32H, K42R, L47M, R65S, E68G, N70D, Y96F, A100S, L106I
notes: Hybridoma mAb
B17: 432C12E1 (antibody, V domains shown)
VH: B11 VH with E10G, P31T, I66K, T90A, S92T, V98A, L102I
VL: B11 VL with E30G, L47M, R65S, R66G, E68G, N70V, Y96F, A100S, L106I
notes: Hybridoma mAb
B18: 416C9H8 (antibody, V domains shown)
VH: B11 VH
VL: B11 VL with I34V, K42R, N70D
notes: Hybridoma mAb
B19: 402H2G12 (antibody, V domains shown)
VH: B16 VH with T30S, S61Y, S67N, T83K, T85N, V103I
VL: B11 VL with E30D, D32H, L47M, R65S, E68G, N70D, Y96F, A100S, L106I
notes: Hybridoma mAb
B20: 424H7F2 (antibody, V domains shown)
VH: B11 VH with S19T
VL: B11 VL with S72A
notes: Hybridoma mAb; also called surrogate anti-CXCL13 antibody
B21: 178B2E8 (antibody, V domains shown)
VH: EVKLVESEGGLVQPGSSMKLSCTASGFTFTDYYMTWVRQVPEKGLEWVANINYDGSRTNYLDSLKSRFIISRDNAKNILYLQMSSLKSEDTATYYCARDGNYHFYGMDYWGQGTSVTVSS
VL: DFVLTQSHKFMSTSVGDRVSITCKASQDVSTAVAWYQQKPGQSPQLLIYWASTRHTGVPDRFTGSGSGTDYTLTISSVQAEDLALYYCQQHYSTPWTFGGGTKLEIK
notes: Hybridoma mAb
B22: 414D10F5 (antibody, V domains shown)
VH: EVQLAESGGGLVQPGRSLKLSCSASGFTFSDYYMAWFRQAPPKGLEWVASISYDGGDSFYRDSVKGRFTISRDNAKSSLYLQMDSLRSEDTATYYCTTEEDYSGSFPDYWGQGVMVTVSS
VL: DIQMTQSPSFLSASVGDRVTINCKASQNINKYLNWYQQKLGEAPKRLIYDTNNLQAGIPSRFSGSGSGTDYTLTINSLQPEDFATYFCLQHNSLYTFGGGTKLELK
notes: Hybridoma mAb

molecular target: T1, human CXCL13; assay: ELISA, coated antigen

EC50 [µg/mL] | Binder
0.0216 | B1
0.344 | B2
0.0124 | B3
0.00664 | B4
0.0388 | B5
0.0156 | B6
0.0128 | B7
0.0166 | B8
0.0266 | B9
0.0633 | B10
0.0265 | B11
48.7 | B12
1.56 | B13
9.85 | B14
2.91 | B15
1.33 | B16
5.1 | B17
5.84 | B18
0.00578 | B19
0.0109 | B20
0.42 | B21
0.0104 | B22

molecular target: T2, cynomolgus CXCL13; assay: ELISA, coated antigen

EC50 [µg/mL] | binding result | Binder
0.0245 | – | B1
0.401 | – | B2
0.0166 | – | B3
0.0178 | – | B4
0.0319 | – | B5
0.0619 | – | B6
– | no binding | B7
0.0125 | – | B8
1.01 | – | B9
0.145 | – | B10
– | no binding | B11
– | no binding | B12
– | no binding | B13
– | no binding | B14
– | no binding | B15
– | no binding | B16
– | no binding | B17
– | no binding | B18
– | no binding | B19
– | no binding | B20
– | no binding | B21
0.019 | – | B22

molecular target: T3, mouse CXCL13; assay: ELISA, coated antigen

binding result | EC50 [µg/mL] | Binder
no binding | – | B1
no binding | – | B2
no binding | – | B3
no binding | – | B4
no binding | – | B5
no binding | – | B6
– | 0.0375 | B7
no binding | – | B8
no binding | – | B9
no binding | – | B10
– | 0.0547 | B11
– | 7.49 | B12
– | 0.248 | B13
– | 2.96 | B14
– | 1.23 | B15
– | 0.202 | B16
– | 0.744 | B17
– | 1.97 | B18
– | 0.0357 | B19
– | 0.0121 | B20
no binding | – | B21
no binding | – | B22

molecular target: T1, human CXCL13; assay: cell-based blocking ELISA, CXCL13 to CHO-K1-CXCR5
Procedure: Splenocytes were electro-fused with mouse myeloma cell line SP2/0 cells and plated into 96-well culture plate. The hybridoma supernatants were tested by ELISA binding assay for anti-human CXCL13 binders. Supernatants of positive binding clones were screened for function in blocking of human CXCL13 binding to its […] CXCR5 by Cell-based receptor blocking ELISA assay. Briefly, 5×10⁴ CHO-K1-CXCR5 cells were plated in 96-well plate with 100 μl of culture medium and incubated at 37° C. overnight. Cells were fixed with 100 μl of 2% PFA at RT for 1 hr after washing with PBS for 1 time. Blocking was done with 1% BSA in PBST for 1 hr at RT. Supernatants were diluted with PBS and pre-incubated with equal volume of 0.3 μg/ml human CXCL13 for 30 min at RT. 100 μl of antibody-antigen complex was then transferred into each cell wells for 30 min at RT. The samples were washed with 1×PBST for 3 times and 100 μl of 3 μg/ml of human Mab5261 antibody was add into each well to capture human CXCL13 and anti-human Fc-HRP was used to indirectly detect human CXCL13 when it bound to CHO-K1-CXCR5 cells. […] Reading was done at […].
Those antibodies were purified from hybridoma supernatants by binding with Protein G column and characterized by ELISA binding assays and cell-based blocking ELISA assays. […] 11/20 clones bound to both human CXCL13 and cynomolgus CXCL13 appeared to completely block human CXCL13 to human CXCR5. 11 blockers bound to both huCXCL13 and cynoCXCL13 were produced as chimeric human IgG1 antibodies for further Characterization.

IC50 [µg/mL] | Binder
13.3 | B1
1.27 | B6
2.46 | B7
0.615 | B8
3.02 | B9
10.1 | B10
3.85 | B11
23.3 | B12
8.96 | B13
18.2 | B14
14.9 | B15
7.92 | B16
12.7 | B17
8.46 | B18
8.72 | B19
1.1 | B20
1.14 | B22
